Where two headings read alike, the source gives them in different places. Each block holds one compound with its values, some of them ahead of it.
Key:
[1] = water/1-octanol partition coefficients (logD) of 68Ga-labeled compounds, γ-counting; assay type: physicochemical; conditions: pH 7.4
Method: The mixtures were vigorously shaken for 5 min on a vibrating plate. After subsequent centrifugation at 13,000 rpm for 5 min, 125 µL was taken from each phase and measured in a γ-counter. The logD values were calculated from three or four independent experiments, each performed in triplicate. For 18, the logD was determined by semipreparative HPLC. For this purpose, a solution of 18 (10 µL, c = 5 × 10^−4 mol/L) in water was added to a mixture of 1 mL 1-octanol and 990 µL phosphate buffered solution (0.05 M, pH 7.4) and vigorously shaken for 5 min. After centrifugation, the phases were separated and both phases were analyzed by semipreparative HPLC and the peaks of the UV signals at 214 nm were integrated. The logD was determined by three separate measurements, each experiment performed in triplicate.

[2] = photophysical properties (absorbance and emission measurements); assay type: physicochemical; conditions: for λmax(em): excitation wavelength λex = 650 nm
Method: Finally, the photophysical properties were determined for dyes, MIS and their conjugates. It could be shown that the photophysical properties remained largely unaltered, including absorption coefficients and emission characteristics (Table 1). […] The only change in photophysical properties we qualitatively observed was an increase in the quantum yields of the dye conjugates compared to their unconjugated leads 1–3, an effect that was described before and can be attributed to the conjugation of sterically demanding groups (such as the PESIN homodimers used here), resulting in a decrease in aggregation of the dye molecules and thus a reduced fluorescence quenching. γ-Counting was performed using a 2480 Wizard gamma counter system from Perkin Elmer. A Cary 100 Bio system (Varian) was used to record the UV/Vis-Spectra together with 4 mL PMMA cuvettes from Sigma-Aldrich. Furthermore, for absorbance and emission measurements, a Tecan Infinite M200 Microplate reader together with a Nunc Micro-Well 96 solid plate from ThermoFisher was used.

SMILES: CC1(C)C(/C=C/C2=C(c3ccc(C(=O)NCCCC[C@H](NC(=O)CC[C@H](C(=O)O)N4CCN(CC(=O)O)CCN(CC(=O)O)CC4)C(=O)N[C@@H](CS)C(N)=O)cc3)C(=C/C=C3/N(CCCCS(=O)(=O)[O-])c4ccc5ccccc5c4C3(C)C)/CCC2)=[N+](CCCCS(=O)(=O)O)c2ccc3ccccc3c21 (single isomer, unassigned) [[68Ga]Ga-10, metal not drawn]
logD [1]: -1.29 ± 0.11

SMILES: CC1(C)C(=CC=C2CCCC(C=CC3=[N+](CCCCS(=O)(=O)[O-])c4ccc(C(=O)NCCCC[C@H](NC(=O)CC[C@H](C(=O)O)N5CCN(CC(=O)O)CCN(CC(=O)O)CC5)C(=O)N[C@@H](CS)C(N)=O)cc4C3(C)C)=C2c2ccccc2)N(CCCCS(=O)(=O)O)c2ccc(S(=O)(=O)O)cc21 (single isomer, unassigned) [[68Ga]Ga-11, metal not drawn]
logD [1]: -3.05 ± 0.08

SMILES: CC1(C)C(=CC=C2CCCC(C=CC3=[N+](CCCCS(=O)(=O)[O-])c4ccc(S(=O)(=O)O)cc4C3(C)C)=C2c2ccc(CCC(=O)NCCCC[C@H](NC(=O)CC[C@H](C(=O)O)N3CCN(CC(=O)O)CCN(CC(=O)O)CC3)C(=O)N[C@@H](CS)C(N)=O)cc2)N(CCCCS(=O)(=O)O)c2ccc(S(=O)(=O)O)cc21 (single isomer, unassigned) [[68Ga]Ga-12, metal not drawn]
logD [1]: -3.47 ± 0.17

SMILES: CC1(C)C(/C=C/C2=C(c3ccc(C(=O)NCCCC[C@H](NC(=O)CC[C@H](C(=O)O)N4CCN(CC(=O)O)CCN(CC(=O)O)CC4)C(=O)N[C@@H](CS)C(N)=O)cc3)C(=C/C=C3/N(CCCCS(=O)(=O)[O-])c4ccc5ccccc5c4C3(C)C)/CCC2)=[N+](CCCCS(=O)(=O)O)c2ccc3ccccc3c21 [Compound 10]
logD [1]: −1.29 ± 0.11

SMILES: CC1(C)C(=CC=C2CCCC(C=CC3=[N+](CCCCS(=O)(=O)[O-])c4ccc(C(=O)NCCCC[C@H](NC(=O)CC[C@H](C(=O)O)N5CCN(CC(=O)O)CCN(CC(=O)O)CC5)C(=O)N[C@@H](CS)C(N)=O)cc4C3(C)C)=C2c2ccccc2)N(CCCCS(=O)(=O)O)c2ccc(S(=O)(=O)O)cc21 [Compound 11]
logD [1]: −3.05 ± 0.08

SMILES: CC1(C)C(=CC=C2CCCC(C=CC3=[N+](CCCCS(=O)(=O)[O-])c4ccc(S(=O)(=O)O)cc4C3(C)C)=C2c2ccc(CCC(=O)NCCCC[C@H](NC(=O)CC[C@H](C(=O)O)N3CCN(CC(=O)O)CCN(CC(=O)O)CC3)C(=O)N[C@@H](CS)C(N)=O)cc2)N(CCCCS(=O)(=O)O)c2ccc(S(=O)(=O)O)cc21 [Compound 12]
logD [1]: −3.47 ± 0.17

SMILES: CSCC[C@H](NC(=O)[C@H](CC(C)C)NC(=O)[C@H](Cc1c[nH]cn1)NC(=O)CNC(=O)[C@@H](NC(=O)[C@H](C)NC(=O)[C@H](Cc1c[nH]c2ccccc12)NC(=O)[C@H](CCC(N)=O)NC(=O)CCOCCOCCOCCOCCNC(=O)CON=Cc1ccc(C(=O)NCCCN(CCCNC(=O)c2ccc(C=NOCC(=O)NCCOCCOCCOCCOCCC(=O)N[C@@H](CCC(N)=O)C(=O)N[C@@H](Cc3c[nH]c4ccccc34)C(=O)N[C@@H](C)C(=O)N[C@H](C(=O)NCC(=O)N[C@@H](Cc3c[nH]cn3)C(=O)N[C@@H](CC(C)C)C(=O)N[C@@H](CCSC)C(N)=O)C(C)C)cc2)CC(=O)N[C@H](CSC2CC(=O)N(CCN3C(=O)CC(SC[C@H](NC(=O)[C@H](CCCCNC(=O)c4ccc(C5=C(C=CC6=[N+](CCCCS(=O)(=O)[O-])c7ccc8ccccc8c7C6(C)C)CCCC5=CC=C5N(CCCCS(=O)(=O)O)c6ccc7ccccc7c6C5(C)C)cc4)NC(=O)CC[C@H](C(=O)O)N4CCN(CC(=O)O)CCN(CC(=O)O)CC4)C(N)=O)C3=O)C2=O)C(=O)NCCOCCOCC(N)=O)cc1)C(C)C)C(N)=O (stereo partly drawn) [Compound 14]
Stokes Shift [2]: 10 nm
λmax(abs) [2]: 735/810
λmax(em) [2]: 820 nm

SMILES: CSCC[C@H](NC(=O)[C@H](CC(C)C)NC(=O)[C@H](Cc1c[nH]cn1)NC(=O)CNC(=O)[C@@H](NC(=O)[C@H](C)NC(=O)[C@H](Cc1c[nH]c2ccccc12)NC(=O)[C@H](CCC(N)=O)NC(=O)CCOCCOCCOCCOCCNC(=O)CON=Cc1ccc(C(=O)NCCCN(CCCNC(=O)c2ccc(C=NOCC(=O)NCCOCCOCCOCCOCCC(=O)N[C@@H](CCC(N)=O)C(=O)N[C@@H](Cc3c[nH]c4ccccc34)C(=O)N[C@@H](C)C(=O)N[C@H](C(=O)NCC(=O)N[C@@H](Cc3c[nH]cn3)C(=O)N[C@@H](CC(C)C)C(=O)N[C@@H](CCSC)C(N)=O)C(C)C)cc2)CC(=O)N[C@H](CSC2CC(=O)N(CCN3C(=O)CC(SC[C@H](NC(=O)[C@H](CCCCNC(=O)c4ccc5c(c4)C(C)(C)C(C=CC4=C(c6ccccc6)C(=CC=C6N(CCCCS(=O)(=O)O)c7ccc(S(=O)(=O)O)cc7C6(C)C)CCC4)=[N+]5CCCCS(=O)(=O)[O-])NC(=O)CC[C@H](C(=O)O)N4CCN(CC(=O)O)CCN(CC(=O)O)CC4)C(N)=O)C3=O)C2=O)C(=O)NCCOCCOCC(N)=O)cc1)C(C)C)C(N)=O (stereo partly drawn) [Compound 15]
Stokes Shift [2]: 30 nm
λmax(abs) [2]: 705/770
λmax(em) [2]: 800 nm

SMILES: CSCC[C@H](NC(=O)[C@H](CC(C)C)NC(=O)[C@H](Cc1c[nH]cn1)NC(=O)CNC(=O)[C@@H](NC(=O)[C@H](C)NC(=O)[C@H](Cc1c[nH]c2ccccc12)NC(=O)[C@H](CCC(N)=O)NC(=O)CCOCCOCCOCCOCCNC(=O)CON=Cc1ccc(C(=O)NCCCN(CCCNC(=O)c2ccc(C=NOCC(=O)NCCOCCOCCOCCOCCC(=O)N[C@@H](CCC(N)=O)C(=O)N[C@@H](Cc3c[nH]c4ccccc34)C(=O)N[C@@H](C)C(=O)N[C@H](C(=O)NCC(=O)N[C@@H](Cc3c[nH]cn3)C(=O)N[C@@H](CC(C)C)C(=O)N[C@@H](CCSC)C(N)=O)C(C)C)cc2)CC(=O)N[C@H](CSC2CC(=O)N(CCN3C(=O)CC(SC[C@H](NC(=O)[C@H](CCCCNC(=O)CCc4ccc(C5=C(C=CC6=[N+](CCCCS(=O)(=O)[O-])c7ccc(S(=O)(=O)O)cc7C6(C)C)CCCC5=CC=C5N(CCCCS(=O)(=O)O)c6ccc(S(=O)(=O)O)cc6C5(C)C)cc4)NC(=O)CC[C@H](C(=O)O)N4CCN(CC(=O)O)CCN(CC(=O)O)CC4)C(N)=O)C3=O)C2=O)C(=O)NCCOCCOCC(N)=O)cc1)C(C)C)C(N)=O (stereo partly drawn) [Compound 16]
Stokes Shift [2]: 20 nm
λmax(abs) [2]: 700/770
λmax(em) [2]: 790 nm

logD ([1]; 68Ga-labeled compound, 1-octanol / phosphate buffer 0.05 M, read-out: logD): -3.35 ± 0.15
SMILES: NC(=O)C(CS)NC(=O)CNC(=O)CCC(C(=O)O)N1CCN(CC(=O)O)CCN(CC(=O)O)CC1 (stereo not drawn) [Compound 19, NH2-Cys-Gly-NODA-GA]

SMILES: CSCC[C@H](NC(=O)[C@H](CC(C)C)NC(=O)[C@H](Cc1c[nH]cn1)NC(=O)CNC(=O)[C@@H](NC(=O)[C@H](C)NC(=O)[C@H](Cc1c[nH]c2ccccc12)NC(=O)[C@H](CCC(N)=O)NC(=O)CCOCCOCCOCCOCCNC(=O)CON=Cc1ccc(C(=O)NCCCN(CCCNC(=O)c2ccc(C=NOCC(=O)NCCOCCOCCOCCOCCC(=O)N[C@@H](CCC(N)=O)C(=O)N[C@@H](Cc3c[nH]c4ccccc34)C(=O)N[C@@H](C)C(=O)N[C@H](C(=O)NCC(=O)N[C@@H](Cc3c[nH]cn3)C(=O)N[C@@H](CC(C)C)C(=O)N[C@@H](CCSC)C(N)=O)C(C)C)cc2)CC(=O)N[C@H](CSC2CC(=O)N(CCN3C(=O)CC(SC[C@H](NC(=O)[C@H](CCCCNC(=O)c4ccc(C5=C(C=CC6=[N+](CCCCS(=O)(=O)[O-])c7ccc8ccccc8c7C6(C)C)CCCC5=CC=C5N(CCCCS(=O)(=O)O)c6ccc7ccccc7c6C5(C)C)cc4)NC(=O)CC[C@H](C(=O)O)N4CCN(CC(=O)O)CCN(CC(=O)O)CC4)C(N)=O)C3=O)C2=O)C(=O)NCCOCCOCC(N)=O)cc1)C(C)C)C(N)=O (stereo partly drawn) [[68Ga]Ga-14, metal not drawn]
logD [1]: -1.33 ± 0.04

SMILES: CSCC[C@H](NC(=O)[C@H](CC(C)C)NC(=O)[C@H](Cc1c[nH]cn1)NC(=O)CNC(=O)[C@@H](NC(=O)[C@H](C)NC(=O)[C@H](Cc1c[nH]c2ccccc12)NC(=O)[C@H](CCC(N)=O)NC(=O)CCOCCOCCOCCOCCNC(=O)CON=Cc1ccc(C(=O)NCCCN(CCCNC(=O)c2ccc(C=NOCC(=O)NCCOCCOCCOCCOCCC(=O)N[C@@H](CCC(N)=O)C(=O)N[C@@H](Cc3c[nH]c4ccccc34)C(=O)N[C@@H](C)C(=O)N[C@H](C(=O)NCC(=O)N[C@@H](Cc3c[nH]cn3)C(=O)N[C@@H](CC(C)C)C(=O)N[C@@H](CCSC)C(N)=O)C(C)C)cc2)CC(=O)N[C@H](CSC2CC(=O)N(CCN3C(=O)CC(SC[C@H](NC(=O)[C@H](CCCCNC(=O)c4ccc5c(c4)C(C)(C)C(C=CC4=C(c6ccccc6)C(=CC=C6N(CCCCS(=O)(=O)O)c7ccc(S(=O)(=O)O)cc7C6(C)C)CCC4)=[N+]5CCCCS(=O)(=O)[O-])NC(=O)CC[C@H](C(=O)O)N4CCN(CC(=O)O)CCN(CC(=O)O)CC4)C(N)=O)C3=O)C2=O)C(=O)NCCOCCOCC(N)=O)cc1)C(C)C)C(N)=O (stereo partly drawn) [[68Ga]Ga-15, metal not drawn]
logD [1]: -2.48 ± 0.14

— article PMC7558102, “Hybrid Multimodal Imaging Synthons for Chemoselective and Efficient Biomolecule Modification with Chelator and Near-Infrared Fluorescent Cyanine Dye” (Pharmaceuticals, 2020)
